Here are results for 36 molecules from paper PMC10786891, “Massively parallel profiling of RNA-targeting CRISPR-Cas13d”.

The labels stand for the following.
T1: EsCas13d, nuclease-dead (Eubacterium siraeum, UniProt B0MS50, R295A;H300A;R849A;H854A)
T1 sequence: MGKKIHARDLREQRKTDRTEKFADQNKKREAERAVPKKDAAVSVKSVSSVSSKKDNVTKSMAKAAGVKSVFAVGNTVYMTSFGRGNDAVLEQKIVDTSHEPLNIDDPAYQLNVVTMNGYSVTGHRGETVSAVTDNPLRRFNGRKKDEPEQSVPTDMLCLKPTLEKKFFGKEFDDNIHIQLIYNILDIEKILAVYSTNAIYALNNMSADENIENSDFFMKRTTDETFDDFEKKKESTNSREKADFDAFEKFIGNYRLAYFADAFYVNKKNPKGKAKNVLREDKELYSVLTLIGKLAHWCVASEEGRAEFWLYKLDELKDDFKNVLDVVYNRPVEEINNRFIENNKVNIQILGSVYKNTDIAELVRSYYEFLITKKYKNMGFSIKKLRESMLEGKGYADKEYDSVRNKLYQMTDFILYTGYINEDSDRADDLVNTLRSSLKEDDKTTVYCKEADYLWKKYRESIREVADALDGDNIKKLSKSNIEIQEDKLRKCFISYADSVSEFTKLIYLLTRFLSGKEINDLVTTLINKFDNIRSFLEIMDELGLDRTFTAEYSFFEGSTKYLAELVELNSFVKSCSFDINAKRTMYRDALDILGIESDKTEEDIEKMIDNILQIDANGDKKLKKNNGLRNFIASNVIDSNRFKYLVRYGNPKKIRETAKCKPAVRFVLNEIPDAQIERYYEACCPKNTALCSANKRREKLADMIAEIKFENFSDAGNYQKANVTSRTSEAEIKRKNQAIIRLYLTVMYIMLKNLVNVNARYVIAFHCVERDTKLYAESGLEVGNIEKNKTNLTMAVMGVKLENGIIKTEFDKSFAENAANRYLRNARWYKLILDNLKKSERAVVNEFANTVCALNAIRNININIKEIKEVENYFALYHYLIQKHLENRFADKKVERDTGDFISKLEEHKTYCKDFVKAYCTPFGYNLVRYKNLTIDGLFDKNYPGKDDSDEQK

B1: target 2 MT 5'PFS GAA 3'PFS CGA (mixed)
RNA 1: CACCCGUGCAAAAUUGCAGGGGUCUAAAACCUUCUCCAAAUUGUUUCAUCCU
RNA 2: GGGAAUGGAUCCACAUCUACGAAUUCGAAAGGAUGAAACAAUUUGGAGAAGCGAAGAUCGGAAGAGCACACGU
B2: target 2 MT 5'PFS UUA 3'PFS AAG (mixed)
RNA 1: B1 RNA 1
RNA 2: B1 RNA 2 with G27U, A28U, C52A, G53A, A54G
B3: target 2 MT 5'PFS GUA 3'PFS CUC (mixed)
RNA 1: B1 RNA 1
RNA 2: B1 RNA 2 with A28U, G53U, A54C
B4: target 2 MT 5'PFS GAA 3'PFS UUU (mixed)
RNA 1: B1 RNA 1
RNA 2: B1 RNA 2 with C52U, G53U, A54U
B5: target 2 MT 5'PFS UUC 3'PFS CCC (mixed)
RNA 1: B1 RNA 1
RNA 2: B1 RNA 2 with G27U, A28U, A29C, G53C, A54C
B6: target 2 MT 5'PFS GUA 3'PFS CUG (mixed)
RNA 1: B1 RNA 1
RNA 2: B1 RNA 2 with A28U, G53U, A54G
B7: target 2 MT 5'PFS GUA 3'PFS CUU (mixed)
RNA 1: B1 RNA 1
RNA 2: B1 RNA 2 with A28U, G53U, A54U
B8: target 2 MT 5'PFS CGG 3'PFS AUA (mixed)
RNA 1: B1 RNA 1
RNA 2: B1 RNA 2 with G27C, A28G, A29G, C52A, G53U
B9: target 2 MT 5'PFS CGG 3'PFS AUU (mixed)
RNA 1: B1 RNA 1
RNA 2: B1 RNA 2 with G27C, A28G, A29G, C52A, G53U, A54U
B10: target 2 MT 5'PFS UAU 3'PFS UCU (mixed)
RNA 1: B1 RNA 1
RNA 2: B1 RNA 2 with G27U, A29U, C52U, G53C, A54U
B11: target 2 MT 5'PFS GAA 3'PFS AUU (mixed)
RNA 1: B1 RNA 1
RNA 2: B1 RNA 2 with C52A, G53U, A54U
B12: target 2 MT 5'PFS CUU 3'PFS CCA (mixed)
RNA 1: B1 RNA 1
RNA 2: B1 RNA 2 with G27C, A28U, A29U, G53C
B13: target 2 MT 5'PFS UUA 3'PFS AAC (mixed)
RNA 1: B1 RNA 1
RNA 2: B1 RNA 2 with G27U, A28U, C52A, G53A, A54C
B14: target 2 MT 5'PFS UGA 3'PFS ACU (mixed)
RNA 1: B1 RNA 1
RNA 2: B1 RNA 2 with G27U, A28G, C52A, G53C, A54U
B15: target 2 MT 5'PFS UGA 3'PFS AGC (mixed)
RNA 1: B1 RNA 1
RNA 2: B1 RNA 2 with G27U, A28G, C52A, A54C
B16: target 2 MT 5'PFS CUU 3'PFS CCG (mixed)
RNA 1: B1 RNA 1
RNA 2: B1 RNA 2 with G27C, A28U, A29U, G53C, A54G
B17: target 2 MT 5'PFS CGG 3'PFS AUC (mixed)
RNA 1: B1 RNA 1
RNA 2: B1 RNA 2 with G27C, A28G, A29G, C52A, G53U, A54C
B18: target 2 MT 5'PFS AAG 3'PFS AUU (mixed)
RNA 1: B1 RNA 1
RNA 2: B1 RNA 2 with G27A, A29G, C52A, G53U, A54U
B19: target 2 MT 5'PFS GAA 3'PFS CGC (mixed)
RNA 1: B1 RNA 1
RNA 2: B1 RNA 2 with A54C
B20: target 2 MT 5'PFS UCA 3'PFS UGU (mixed)
RNA 1: B1 RNA 1
RNA 2: B1 RNA 2 with G27U, A28C, C52U, A54U
B21: target 2 MT 5'PFS GUA 3'PFS CUA (mixed)
RNA 1: B1 RNA 1
RNA 2: B1 RNA 2 with A28U, G53U
B22: target 2 MT 5'PFS UGA 3'PFS ACA (mixed)
RNA 1: B1 RNA 1
RNA 2: B1 RNA 2 with G27U, A28G, C52A, G53C
B23: target 2 MT 5'PFS AUG 3'PFS CGC (mixed)
RNA 1: B1 RNA 1
RNA 2: B1 RNA 2 with G27A, A28U, A29G, A54C
B24: target 2 MT 5'PFS UUA 3'PFS AAA (mixed)
RNA 1: B1 RNA 1
RNA 2: B1 RNA 2 with G27U, A28U, C52A, G53A
B25: target 2 MT 5'PFS AGG 3'PFS AAA (mixed)
RNA 1: B1 RNA 1
RNA 2: B1 RNA 2 with G27A, A28G, A29G, C52A, G53A
B26: target 2 MT 5'PFS CUU 3'PFS CCC (mixed)
RNA 1: B1 RNA 1
RNA 2: B1 RNA 2 with G27C, A28U, A29U, G53C, A54C
B27: target 2 MT 5'PFS UUA 3'PFS AAU (mixed)
RNA 1: B1 RNA 1
RNA 2: B1 RNA 2 with G27U, A28U, C52A, G53A, A54U
B28: target 2 MT 5'PFS AAG 3'PFS AUC (mixed)
RNA 1: B1 RNA 1
RNA 2: B1 RNA 2 with G27A, A29G, C52A, G53U, A54C
B29: target 2 MT 5'PFS AAU 3'PFS AAU (mixed)
RNA 1: B1 RNA 1
RNA 2: B1 RNA 2 with G27A, A29U, C52A, G53A, A54U
B30: target 2 MT 5'PFS UGA 3'PFS ACC (mixed)
RNA 1: B1 RNA 1
RNA 2: B1 RNA 2 with G27U, A28G, C52A, G53C, A54C
B31: target 2 MT 5'PFS GCU 3'PFS CUA (mixed)
RNA 1: B1 RNA 1
RNA 2: B1 RNA 2 with A28C, A29U, G53U
B32: target 2 MT 5'PFS AUU 3'PFS ACC (mixed)
RNA 1: B1 RNA 1
RNA 2: B1 RNA 2 with G27A, A28U, A29U, C52A, G53C, A54C
B33: target 2 MT 5'PFS UGA 3'PFS ACG (mixed)
RNA 1: B1 RNA 1
RNA 2: B1 RNA 2 with G27U, A28G, C52A, G53C, A54G
B34: target 1 U11G,A16U (mixed)
RNA 1: CACCCGUGCAAAAAUGCAGGGGUCUAAAACUGAGCGGAUAACCUCUCUAUGG
RNA 2: GGGAAUGGAUCCACAUCUACGAAUUCGUACCAUAGUGAGGGUAUCCGCUCACCGAGAUCGGAAGAGCACACGU
B35: target 1 insU 3' of 9,insG 3' of 8 (mixed)
RNA 1: B34 RNA 1
RNA 2: GGGAAUGGAUCCACAUCUACGAAUUCGUACCAUAGAGAGGUUAUUGCCGCUCACCGAGAUCGGAAGAGCACACGU
B36: target 1 C7A,U10C (mixed)
RNA 1: B34 RNA 1
RNA 2: B34 RNA 2 with U36A, G41U, U42C, C45A

Where a chain is given by its changes, count along the chain named. In names and notes the source's numbering stands.

For the data set, the target named is T1, EsCas13d, nuclease-dead. Nature of the data set: crRNA (strand 1, pre-loaded); Mg2+; 40 mM Tris-HCl pH 7.5, 150 mM NaCl, 6 mM MgCl2, 1 mM DTT, 0.1% Tween-20, 0.2 mg/ml BSA; 25 C; 10 min per concentration, then washed. The following applies: tags: His6-TwinStrep-SUMO cleaved; N-terminal SNAP kept (SNAP-Surface 488); label: 3' end held by stalled T7 RNA polymerase.
Turning to B1, binding was characterised by a dissociation constant (Kd) of 9.2 ± 1.7 nM.

Turning to B2, the affinity, expressed as Kd, was 17.5 ± 1.8 nM.

Regarding B3, the Kd (in general, a measure of binding affinity in units of concentration) was 15.5 ± 2.6 nM.

For the molecule B4, the Kd worked out at 24 ± 4 nM.

Molecule B5 displayed a Kd of approximately 29 nM.

Molecule B6 registered a Kd of 11.1 ± 1.2 nM.

B7 showed a Kd of 10.2 ± 1 nM.

As to B8, the affinity, expressed as Kd, was 4.1 ± 0.5 nM.

B9: the Kd was found to be 4.01 ± 0.28 nM.

The molecule B10 yielded a Kd of 81 ± 23 nM.

Molecule B11 had a Kd of 7.3 ± 1.1 nM.

As to B12, the Kd is 8.9 ± 1.1 nM.

As for B13, the Kd amounted to 18.7 ± 3.1 nM. This Kd lies about 2.1-fold higher than the previous one.

For B14, the Kd was determined as 15.6 ± 3.5 nM.

In turn, B15 had a Kd of 6 ± 0.9 nM.

Take B16: the affinity, expressed as Kd, was 6 ± 0.4 nM.

Regarding B17, the affinity, expressed as Kd, was 6.8 ± 1.1 nM.

For B18, the Kd was determined as 4.1 ± 0.5 nM. Compared with the last molecule, the Kd is about 1.7-fold lower.

On to B19, for which the Kd turned out to be 7.4 ± 0.5 nM.

Take B20: the Kd stood at 7.8 ± 1.1 nM.

B21 returned a Kd of 6.5 ± 0.6 nM.

Regarding B22, the dissociation constant (Kd) amounted to 9.1 ± 1 nM.

Turning to B23, the Kd came to 8.1 ± 0.8 nM.

As for B24, the Kd worked out at 14.6 ± 2.7 nM.

Regarding B25, the Kd was determined as 4.3 ± 0.9 nM. This Kd is about 3.4-fold lower than that of the molecule before.

Molecule B26 displayed a Kd of 18 ± 9 nM. This Kd lies about 4.2-fold higher than the previous one.

In turn, B27 gave a Kd of 18 ± 5 nM.

B28 displayed a Kd of 5.2 ± 0.9 nM. Against the preceding molecule, the Kd is about 3.5-fold lower.

Take B29: the Kd is 4.1 ± 0.6 nM.

Molecule B30 came in with a Kd of 16 ± 4 nM.

For B31, the Kd was 17 ± 5 nM.

As for B32, the affinity, expressed as Kd, was 15.2 ± 3.1 nM.

Turning to B33, the Kd turned out to be 11.6 ± 1.9 nM.

For the molecule B34, the affinity, expressed as Kd, was 82 ± 12 nM.

In turn, B35 had a Kd of 8.3 ± 0.5 nM.

The molecule B36 had a Kd of 13.6 ± 0.7 nM.
